Consider ten molecules from paper PMC4358367, “Structural basis of diverse membrane target recognitions by ankyrins” (eLife, 2014).

Numbering of substitutions follows the chain as printed. Names may count otherwise. Where two headings read alike, the source gives them in different places.

The target in assay [1] is T1, AnkG_repeats (24 ANK repeats of rat 190 kDa ankyrin-G, residues 38–855) (rat, UniProt O70511 38-855).
T1 chain: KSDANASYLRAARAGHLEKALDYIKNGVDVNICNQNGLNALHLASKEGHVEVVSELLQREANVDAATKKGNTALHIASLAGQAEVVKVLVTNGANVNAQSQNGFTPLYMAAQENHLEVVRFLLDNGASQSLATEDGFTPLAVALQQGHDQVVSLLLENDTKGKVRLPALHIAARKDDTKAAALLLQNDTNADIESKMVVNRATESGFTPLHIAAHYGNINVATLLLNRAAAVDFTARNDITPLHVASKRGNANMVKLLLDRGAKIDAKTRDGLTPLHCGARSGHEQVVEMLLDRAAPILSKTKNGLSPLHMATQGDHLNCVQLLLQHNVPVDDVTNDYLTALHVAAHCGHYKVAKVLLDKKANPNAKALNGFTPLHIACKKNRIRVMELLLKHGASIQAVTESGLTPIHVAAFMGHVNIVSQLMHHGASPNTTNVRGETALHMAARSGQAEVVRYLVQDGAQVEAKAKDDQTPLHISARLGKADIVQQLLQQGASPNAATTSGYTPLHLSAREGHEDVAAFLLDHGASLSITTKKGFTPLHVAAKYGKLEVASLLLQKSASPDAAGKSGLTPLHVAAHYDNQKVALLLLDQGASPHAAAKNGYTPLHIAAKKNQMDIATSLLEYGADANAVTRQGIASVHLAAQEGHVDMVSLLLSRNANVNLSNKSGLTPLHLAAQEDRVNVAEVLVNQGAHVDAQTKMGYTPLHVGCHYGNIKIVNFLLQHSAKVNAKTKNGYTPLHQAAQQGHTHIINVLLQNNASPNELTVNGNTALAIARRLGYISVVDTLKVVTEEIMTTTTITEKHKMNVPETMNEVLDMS
Nature of the assay: ITC. In general terms: ITC needs no label: the signal is the heat of the interaction.

Assay [2] addresses T2, AnkG ANK repeats R1–6 (truncation of AnkG_repeats with C-terminal capping sequence) (rat | human).
T2 chain: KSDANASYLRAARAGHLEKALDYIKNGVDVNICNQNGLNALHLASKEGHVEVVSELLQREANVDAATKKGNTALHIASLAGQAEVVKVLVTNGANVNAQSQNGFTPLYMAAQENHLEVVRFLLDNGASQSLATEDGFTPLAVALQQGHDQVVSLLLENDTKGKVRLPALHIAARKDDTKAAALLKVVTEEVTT
Nature of the assay: ITC.

Assay [3] concerns the target T1, AnkG_repeats (24 ANK repeats of rat 190 …). Nature of the assay: ITC.
The target of the next assay is T3, AnkG_repeats (Rattus norvegicus, UniProt O70511).
T3 construct: thioredoxin-His6 (N); made in house; host or cells: Escherichia coli BL21 (DE3)
T3 sequence (O70511 38-855): T1 chain
Nature of the assay: ITC binding to AnkG_repeats WT. The conditions noted are these: 25°C, 50 mM Tris, 100 mM NaCl, 1 mM EDTA, 1 mM DTT, pH 7.5, one-site binding model, AnkG_repeats WT. From the text:
The coding sequences of AnkB_repeats (residues 28–873) were PCR amplified using the full-length human 220 kDa AnkB as the template. The coding sequences of the AnkR constructs, including AnkR_repeats (residues 42–853), and the full length AnkR C-terminal domain (residues 1529–1907), were PCR amplified from a mouse muscle cDNA library. The coding sequence of AnkG_repeats (residues 38–855) were PCR amplified using the full-length rat 190 kDa AnkG as the template. The fusion construct of AnkR_AS and AnkB_repeats was made by standard two-step PCR with a coding sequence of thrombin recognition residues ‘GSLVPRGS’ as the linker. This construct was used to crystallize and determine the complex structure. The same strategy was used in making other fusion constructs, including the Nav1.2_ABD-C/AnkB_repeats_R1–9 fusion construct containing residues 1103–1129 from mouse Nav1.2 and human AnkB residues 28–318 followed by a capping sequence corresponding to the αB of R24 (residues 814–822) and the AnkR_AS/AnkG_repeats fusion construct. For truncation mutations of ANK repeats constructs, the same capping sequence was added to the appropriate region of the C-terminus of each construct for protein stabilization. Mouse Nav1.2 (NP_001092768.1) and mouse neurofascin (CAD65849.1) were used here for studying their interaction with ankyrins. Peptides for mouse KCNQ2 (NP_034741.2, residues 826–845) and mouse Cav1.3 (NP_083257.2, residues 2134–2166) were commercially synthesized. For simplicity, we used human 220 kDa AnkB for the amino acid numbering throughout the manuscript. For the corresponding point mutations made on AnkG_repeats, each residue number should be increased by 10. All point mutations were created using the Quick Change site-directed mutagenesis kit and confirmed by DNA sequencing. […]
Isothermal titration calorimetry (ITC) measurements were carried out on a VP-ITC MicroCal calorimeter (MicroCal, Northampton, MA) at 25°C. […] The titration data were analyzed using the program Origin 7.0 and fitted by the one-site binding model.

In assay [4] the target is T4, Nav1.2 ABD C-terminal half (UniProt Q99250).
T4 chain: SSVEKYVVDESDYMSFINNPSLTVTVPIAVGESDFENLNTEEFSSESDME

Assay [5] has as its target T5, Nav1.2_ABD (ankyrin binding domain of Nav1.2, residues 1035–1129).
T5 chain: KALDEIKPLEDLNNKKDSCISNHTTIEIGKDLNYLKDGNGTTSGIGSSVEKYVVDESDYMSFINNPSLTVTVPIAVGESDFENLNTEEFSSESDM
Nature of the assay: ITC. The conditions noted are these: chain shown with the change.

In assay [6] the target is T5, Nav1.2_ABD (ankyrin binding domain of …). Nature of the assay: ITC. The conditions noted are these: chain shown with the change.
The target of assay [7] is T6, Nfasc_ABD (28-residue fragment of the neurofascin cytoplasmic tail, residues 1187–1214).
T6 chain: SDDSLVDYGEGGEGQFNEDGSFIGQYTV
Nature of the assay: ITC. The conditions noted are these: chain shown with the change;; parent: 0.21 ± 0.02.

Assay [8] deals with T5, Nav1.2_ABD (ankyrin binding domain of …). Nature of the assay: ITC. The conditions noted are these: chain shown with the change.
Assay [9] has the same target. Nature of the assay: ITC. The conditions noted are these: chain shown with the change.
Assay [10] has as its target T7, AnkG_repeats (24 ANK repeats of rat 190 kDa ankyrin-G, residues 38–855), O70511.
T7 chain: T1 chain
Nature of the assay: ITC. The conditions noted are these: chain shown with the change.

By Kd is commonly meant the equilibrium constant for the complex coming apart. Take TVTVPIAVGESDFENLNTEEFSSESDM (domain or fragment) [Nav1.2_ABD-C (27-residue motif of loop 2, residues 1103–1129)]: the values for the Kd in assay [1] and in assay [2] were 2700 nM and 2300 nM, respectively.

B1: Nfasc entire cytoplasmic tail (residues 1132–1240) (domain or fragment)
chain: KRSRGGKYPVREKKDVPLGPEDPKEEDGSFDYSDEDNKPLQGSQTSLDGTIKQQESDDSLVDYGEGGEGQFNEDGSFIGQYTVKKDKEETEGNESSEATSPVNAIYSLA
Take B1: in assay [3], the Kd was 580 nM.

B2: Nav1.2 ABD without the C-terminal less-conserved 10 residues of ABD-C (domain or fragment)
chain: KALDEIKPLEDLNNKKDSCISNHTTIEIGKDLNYLKDGNGTTSGIGSSVEKYVVDESDYMSFINNPSLTVTVPIAVGESDFENLN
Consider B2, for which the equilibrium dissociation constant (Kd) in assay [1] turned out to be 170 nM.

B3: ABD-N (1035 - 1102): N-terminal 68-residue fragment of Nav1.2 loop 2 (residues 1035–1102) (protein, UniProt Q99250 1035-1102, looked up, fragment)
chain: ALDEIKPLEDLNNKKDSCISNHTTIEIGKDLNYLKDGNGTTSGIGSSVEKYVVDESDYMSFINNPSLT
On to B3, for which the results for the dissociation constant Kd with AnkG_repeats and in the assay with AnkG_repeats (listed as ABD-N) were 8100 ± 1100 nM and ~8000 nM, respectively.

Regarding MMNEDA [AnkB repeats R1-6], the equilibrium dissociation constant (Kd) in [4] was ~2300 nM.

B4: AnkG_repeats (24 ANK repeats of rat 190 kDa ankyrin-G, residues 38–855), O70511 F131Q; F164Q (protein)
chain: T1 chain with F104Q, F137Q
Turning to B4, the Kd in assay [5] and in assay [6] was 6600 nM in each case.

B5: AnkG_repeats (24 ANK repeats of rat 190 kDa ankyrin-G, residues 38–855), O70511 I267Q; L300Q (protein)
chain: T1 chain with I240Q, L273Q
For the molecule B5, the equilibrium dissociation constant (Kd) was 220 nM in [5], 2800 nM in assay [7] and 220 nM in assay [8].

B6: AnkG_repeats (24 ANK repeats of rat 190 kDa ankyrin-G, residues 38–855), O70511 L366Q; F399Q; L432Q (protein)
chain: T1 chain with L339Q, F372Q, L405Q
For B6, the Kd in assay [5] is 1100 nM; in assay [7], 6000 nM; in assay [9], 1100 nM.

B7: Nav1.2_ABD (ankyrin binding domain of Nav1.2, residues 1035–1129) E1112Q (protein)
chain: T5 chain with E78Q
Turning to B7, the Kd in assay [10] was found to be 4600 nM.

B8: Nav1.2_ABD (ankyrin binding domain of Nav1.2, residues 1035–1129) E1112A (protein)
chain: T5 chain with E78A
B8 registered a Kd in assay [10] of 4300 nM.
